This assay has as its target T1, 6HIS-Δ38NADKc-1, refolded (A. thaliana, UniProt Q0WUY1 39-534).
T1 sequence (looked up): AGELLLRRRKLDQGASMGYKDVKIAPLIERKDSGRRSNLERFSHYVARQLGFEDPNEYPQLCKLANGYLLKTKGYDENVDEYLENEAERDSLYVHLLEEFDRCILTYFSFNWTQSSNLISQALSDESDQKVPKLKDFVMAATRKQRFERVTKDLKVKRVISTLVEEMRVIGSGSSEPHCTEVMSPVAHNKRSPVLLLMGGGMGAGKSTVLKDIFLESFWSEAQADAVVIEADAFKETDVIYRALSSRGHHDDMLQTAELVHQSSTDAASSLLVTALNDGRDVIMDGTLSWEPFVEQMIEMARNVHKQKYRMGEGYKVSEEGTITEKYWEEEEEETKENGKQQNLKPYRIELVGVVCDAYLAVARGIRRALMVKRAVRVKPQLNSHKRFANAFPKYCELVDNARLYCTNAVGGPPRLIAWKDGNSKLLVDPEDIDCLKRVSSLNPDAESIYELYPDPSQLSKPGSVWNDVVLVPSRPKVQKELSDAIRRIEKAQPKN
Nature of the assay: enzyme activity titration.

B1: A. thaliana (At) CaM1 (natural protein)
chain: not shown
For orientation: Kd means the equilibrium constant for the complex coming apart. Lower therefore signals tighter binding. B1 showed a Kd of 0.6 to 1 nM.

The values are drawn from paper doi:10.1101/521658 (bioRxiv, 2019).
